A short description of this data set: soluble fraction after stress (log2 fold change); higher = more stays soluble; pooled small domains, quantitative proteomics. To be noted: stress: 50 degC. The procedure, abridged:
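Each library was heated to 50°C as a stress step. The libraries, made up of small protein domains, were pooled and analysed at high throughput by quantitative proteomics. The reported value is the base-two logarithm of the fold change in each protein's soluble amount after stress, taken as a measure of aggregation propensity. The higher the value, the more protein stays in solution.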
“HMLHQSLVVNAASGRVTVSLDIVPDEDNPYAVLRATDDSDEPLAQVRVAPSFKLNRASALAWIESQFARP”: the “soluble fraction (log2)” value was -0.821.
With “HMELPMGTQLPPERELAQQMQVSRAVVNGGLAELAQQGFLEVRPRQGTFVADYRRKGNLSTLIAIMEY” the figure was 0.0153; with “HMGGNVYAYRLTASVKSGEQIPANKIEKVKMLSSDLPTNYVPDTVNVTAYKSKLDLQAGTILSTSLLYEN”, 0.0242; with “HMDVNMLVTGMLHKGEKSFVRVSFLRGKDWAEGIVPDAKIEKSQGFMEEEVARLEAYLLEQKSMIMEQA”, -1.32.
Turning to “HMDVQNLTKKNQEFINIVTHQLLQSGKSDEDIQTILAKTLPEIIEKQKQGIPARSFLGAPTAWAAQFI”, the “soluble fraction (log2)” value amounted to 0.133.
With “HMKMNFNEEEQKLLSEANVLVETNKTYTDDEVKGFSNKIVEHIMTFSKTDIPKVKSKFDPILFKI” the figure was -0.244; with “HMIDFDEIEILSSSKIEKIENSEYLKSSIFEKDSNQYIYRLSFENRDQLKNFKKEIEDIDQIKKIDVTY”, 0.103; with “HMYSYSGSVINTYKVPVSVVLKDANGSAIASWDLPVDQSLGISAKDIATSSGTIEITGDGVNETKTVTFTK”, -0.0188.
Take “HMTSDADSLRDKTGYVAEQVTSKGGKVNLYDGGFDSLYSARSTGETISTGTEIRVVDPGGGNMLVVEPV”: the “soluble fraction (log2)” value amounted to 0.367.
Regarding “HMSAVIGTATVTTSSGSLNLRESASLYSRVIRTIPRGATVDVLSRDTSWSRVRYAGSEGYVLNQYLTFQT”, the “soluble fraction (log2)” value is -0.0809.
To “HMLAVSVDKDGKVYIQDSETAVDAVTAKLRAISGNNSEIRIFVRGDADVNYGRIMEIMGVINAAGFRKVAL” belongs -0.467; to “HMSRQDYLQTIYRLSVGKGYTTNKKIADFLSVSKPSVTEMIGKLQGEGLVAMDGAHIFLTEDGAEQ”, -0.567.
In the case of “HMDLTSDANLKEAKDQILNLLNDGKRHHVTEINKILLPPVQVQEALRFLIHEETVRVDASFLF”, the “soluble fraction (log2)” value is -0.167.
“HMRHLSVPNRQVEGALDHIRSQGWLAEGMRVFASEDGSARLIPLGPGAPLEMLEPLAKFDVISHEGKPY”: the “soluble fraction (log2)” value was -0.0914.
With “HMLAAAVVVYATDKVNVRAEASETADVIGQLEAGSQTTRLEDKDGWSRIDYSNGTQGYMKSEFLSTEAPT” the figure was -0.102.
With “HMGFALLIAIERTGNTTYFVKLTLIKKGSDSDVLKDSFSVSQGDLVGTATYDSVIANRIREKTAAMWQKAT” the figure was -2.13; with “HMDMSDFEVVRDMYLTGKVWNAGDIVEAKGITGEVVRKGTNYLSFVDKNGKVHKAWLHEIEL”, -0.188; with “HMDYADISYKIFMNHIKNGQVERVELSGDPRIMGKLKDGTYFVTDNPRTENFKEFLLLNNVQVIETN”, 0.43.
For “HMAKRPRFEDVIKEINTEIQKRKGKWNLTILSWMDFDDVAQVIRIHIYRKWHLYDPSKPLGPWLNR”, the “soluble fraction (log2)” value came to 0.0232.
“HMQPDFLDAKASLALLGVRPQTLYAYVSRGAIRSVPQPGTKAHLYSRSDIERVMARAAARAG”: the “soluble fraction (log2)” value is -1.12.
With “HMTINQIDPASGRKVGYWIITGEMKPKEGFSPDNKIEEGIYVNSRKSGKWIKYWPNGNVRSEIIYKNGR” the figure was -0.549; with “HMTSLSYINDLVTGATAQGLYRIVVPNQFMDDNMANVLRRTYGYQVQSRTSLMGTFDDYIISWAPPM”, -2.45; with “HMTKKFQIQTLDKLNVRKVADWNASAVTTVKKGQILDVVAEVSPKNGSTKMYKLESGLYITASEKYVKKQG”, 0.0509.
In the case of “HMQKTQVVEVAGKSYQLTKMDARTGSYVAFKVAGVLAPSGGKTAEMAAALMGMPRKDFDELQSLLLRTV”, the “soluble fraction (log2)” value came to 0.141.
On to “HMTVPTEVALELMHATALEDNEQRILYIASFKEKHREHLHATIEVDGQEVTLARYADLVATGAYL”, for which the “soluble fraction (log2)” value is -0.505.
As for “HMVQIIQLQGTDKRLYELVAPLVMNPEILKQNYNYPFRTSEDFVWFVAVDKKKVIGFIPVEEKKKEYVI”, the “soluble fraction (log2)” value was -0.0678.
To “HMPKDLEKRAAILAAAKHLFPVHGFEGTSMDAIAALANVSKLTVYSHFKDKESLFTEAIREK” belongs -0.087; to “HMLKFGLSQRELQILALLPTDEPLSILAKSLFISESTLKTHLTHIYRKLGVKNRLQAINVARKAGLLK”, -0.283; to “HMFDTVFIVRKTSDKPLDGLRTYLNSIGDSLVIGEDDEAFKVHVHTNHPGKVLEEAITYGALQTVKIENMR”, -0.966.
With “HMVKVEVKPNVLQWVIKRMDNFDRLKDQFPNIDKWINQESQPTLKQLEKLAKMTAVPLGYFFLPNPPEEK” the figure was -0.183; with “HMDESLIEEAKAMILQMKIEGSVRVRSNGLLEFRNPLFGSVYGRSVEELQEKLNKKVREQKSRI”, -0.0459.
Take “HMNEIDDYDIQLLEYLSKGVSQEAMESVFKQAGITPNSKSTIEKRISKLKIYFKALNTTHLVSITKDLGL”: the “soluble fraction (log2)” value was -0.642.
Turning to “HMSLTEEQVDSGLKEIRLALLEADVALPVVKNFITNIKPKAIGQEIIRSTSPGQMIVKIVYDELVSIL”, the “soluble fraction (log2)” value is -0.0891.
Turning to “HMDINLSENLVRLRHAKKLTQEQLADFLGVTKASVSKWETRQSLPDILLLPRLAAFYGVTVDELIGYEP”, the “soluble fraction (log2)” value is -0.253.
With “HMGMVEFEIGERDHSEDVSRKLFEAGLIEDASDFNQYMIEKKMDDHLQTGKYQIPKGATKDEILELIVR” the figure was -0.00544; with “HMIKLSTNENTALRLVMERGLVTESELKGLFDNPVAVMESLISKMIETNTHWIHSERSENGEWVYAWQ”, -0.456.
With “HMQLGEEAGDELVAIVRSVINDNDKALADYLAGKSSALKFLLGQVMRQTKGRADHALVQSLLEAELEAL” the figure was -0.169; with “HMQISGIHLYERRITKDDEWAERKLSEISLAGSLVILILRNEHVVIPNGETVLKENDLLYISD”, -2.93.
To “HMVGMDRYFKIKNIKDSSAAFERDYILHFLKENDWMVSKTAQMIGLERTTLYKKIKQLGLASMLEN” belongs -2.85; to “HMSEMLPFDEARRQFERDYLVQLLKLTSGNVSQAARLARRNRTDFYALLGRHQLEPASFKPE”, -0.298; to “HMNELTDKQILLFSNKLAHNIPFSSKYSKPGESYEEFAERLANELIDPQKVKLYKPYLEEVGFK”, 0.302.
On to “HMKLGYTVHGNVVTVKAVANGISLYNTIGQKVAESTDGQTVKAPAHGVYILSVQGKSGSRETAKIVI”, for which the “soluble fraction (log2)” value was -0.39.
To “HMSITKDNLSIGTNIRISGFSDIGRIISIPNKGNQVQVQIGSAKMNIKINSIVEIIKEEKDFNKNISN” belongs -0.102; to “HMESEIYKKIEKSRLLELAFTKSQKGDLTGAYDLYYQAFTKYDVIADNQNRYFEDFISLIRRKQQQD”, -0.739.
With “HMNNLNDIIEIIRIYAKNYARNNPSWNHSELINRIRDKALGEAEDYNIRLSEEDLALITELSLRGL” the figure was -0.474; with “HMRSSAATMFGRIALKNKLVDEATLKKVMSELPAGADLGAVLVKQGLISEQHAEAIQKKITAHMKSAP”, 0.273; with “HMSDLTEVIVKFSGDIQPIRQDLDAQVEILLKGYAIITLSPNKIGRLYSYPQIESIEIPKNLYI”, -1.26.
Consider “HMQESVTVSAQALRRLLEKGDGDAALLYLALLRHHGTIQPRALAGELRWERPRIEAAEEALRQMGLIA”, for which the “soluble fraction (log2)” value was -0.0318.
Consider “HMEIRNLMPILSHFLNENDIKLSRESVNLVLDRASGNRENLNNELKKIHDYSFSNKIIDFETIKKLTNLG”, for which the “soluble fraction (log2)” value is -0.194.
To “HMGVGVPVTLLLEKLGEDTLSAQQIMERLGLKSRASFRKVYLVPALEQKLIEMEFPDKPNSSKQRYRR” belongs -0.853.
